From the MegaScale stability set (Tsuboyama et al. 2023)

B1: EHEE_rd2_0191 (parent)
chain: TTEYTFTDDEEARRAIEELKKRGLTFRYEKHGTTWRVRVD
B2: EHEE_rd4_0726 (parent)
chain: DIEITTNGEEDAKRVIKELQKRNLEYHIEVHGNQWVIKVR

Variants of: B1
Assay: folding stability dG (cDNA display proteolysis); higher = more stable
Details: PBS, room temperature

Folding stability dG [kcal/mol]: each site, then its substitutions
V39: F 1.24, L 1.6, M 1.02, A 0.227, T 0.562, E -0.709, I 2.02, P -0.946, W 0.937, H -0.386, Q -0.645, Y 0.601, S -0.316
R27: L 1.74, N 1.91, T 3.02, S 2.73, H 2.39, A 2.1, F 2.29, K 2, I 2.29, E 2.02, D 1.62, Y 2.42, G 1.37, W 2.77, Q 2.25, V 2.51, M 2.03
V37: I 2.67, P -0.51, M 0.361, C 0.419, L 1.76, F 1.88
H31: V 2.56, I 2.81, S 2.1, D 2.39, A 1.75, L 2.29, E 2.24, W 1.89, M 2.18, R 1.99, G 0.625, T 2.29, F 2.15, N 2.21, Y 2.04, Q 2.21, K 2.06
G32: Y 0.194, V -0.186, M 0.592, T -0.068, S 0.389, A 0.777, D 1.34, F 0.367, N 1.1, R 0.119, L 0.796, E 1.35, K 0.641, W -0.3, Q 0.889, I -0.154, H 0.696
T34: Y 2.05, Q 1.78, S 1.53, A 1.48, W 1.75, L 2.33, D 1.03, M 2.08, N 1.48, V 2.42, C 2.51, K 1.48, I 2.48, F 2.15, E 2.07, R 1.54, G 1.56, H 1.74
W35: L 0.943, A -0.575, H 1.59, Y 1.21, V 1.44, R -0.576, C 1.77, M 0.84, F 0.889, S 0.309, T 1.49, N -0.839, I 2.15
R36: M 2.08, A 1.19, K 2.35, E 1.34, T 2.57, S 1.67, N 1.43, L 2.71, D 0.362, Q 1.54, F 3.02, V 3.08, Y 3.28, G -0.707, C 2.39, W 2.7, H 2.44, I 3.33
D40: C 3.04, I 2.83, V 2.54, N 2.04, L 2.78, K 1.9, A 2.04, T 2.38, H 2.19, E 2.31, G 2.1, P 1.86, Q 2.19, W 3.19, M 2.68, R 1.95, S 2.17, F 3.35, Y 3.29
T33: A 1.93, S 2.19, D 2.54, H 2.01, E 2.14, P 1.79, Y 1.7, I 1.84, F 1.9, N 2.55, L 1.91, V 1.71, K 2.01, W 1.13, G 2.46, Q 2.03, R 1.8, M 1.9
R38: E 2.35, I 3.6, Y 3.62, A 1.89, K 2.06, G 0.594, M 2.81, N 1.71, H 2.28, W 4.04, L 2.95, Q 2.47, T 2.95, D 1.11, F 3.61, S 2.49, V 3.23
Y28: V 3.23, A 2.4, T 1.78, G 0.032, D -0.987, H 0.592, L 2.15, Q 0.764, K 0.466, S 1.34, F 2.06, W 2.2, R -0.634, C 2.52, M 1.86, I 2.95, E 0.447
K30: L 1.54, F 1.22, I 1.86, H 1.51, W 0.819, M 1.43, A 0.56, E -0.015, S 0.569, Q 1.54, R 1.99, Y 1.21, T 0.892, N 0.931, V 1.82
E29: C 2.56, V 2.07, D 1.7, N 1.38, A 1.75, L 1.71, G 1.04, W 3.04, H 1.83, S 2.12, F 2.35, T 2.21, M 1.94, I 2.13, Y 2.44, R 1.77, K 1.72, Q 1.75

Variants of: B2
Assay: as above
Details: PBS, room temperature

Folding stability dG [kcal/mol], by site and new letter:
I2: R 1.97, D 1.41, T 1.91, W 3.69, V 2.15, P 1.06, H 2.06, A 1.53, G 1.4, Q 1.69, F 3.22, S 1.65, N 1.49, E 1.54, K 1.58, C 2.82, Y 3.27, L 2.52, M 2.43
D1: C 2.75, L 2.76, P 2.29, Y 3.38, M 2.87, A 2.34, F 3.31, G 2.43, V 2.77, N 2.37, S 2.39, H 2.48, E 2.59, Q 2.36, R 2.24, W 4.08, K 1.97, I 2.87, T 2.63
E3: F 2.93, Q 2.37, R 2.34, A 2.16, Y 3.11, L 2.76, I 3.45, N 1.87, M 2.74, K 2.18, S 2.5, W 3.35, V 3.33, G 1.25, T 3.12, H 2.31, D 1.78, P 0.973
T6: G 2.65, I 3.08, M 2.38, W 1.04, Q 0.841, E 0.908, L 2.84, V 3.55, P 1.51, N 0.494, H 0.768, K 1.22, S 1.47, Y 1.59, F 2.32, A 2.62, D 0.026, R 1.53
I4: F 2.12, H 0.697, A 0.165, N -0.395, T 0.528, R 0.4, L 1.66, V 1.57, E 0.017, K 0.22, D -0.582, Q 0.094, G -0.292, W 1.99, Y 2.15, P 0.107, S 0.002, M 1.23
T5: L 2.49, M 2.39, K 2.32, S 1.96, E 1.66, D 1, R 2.92, I 3.17, Y 2.91, C 2.86, H 2.61, P 1.59, G 1.08, F 2.77, W 3.48, N 1.75, A 1.84, V 3.03, Q 2
